{"source": "patent US9221900B2", "about": "“Methods for identifying safe and functional humanized antibodies” (AC IMMUNE S.A., priority 2010, dated 2015)", "key": {"[1]": {"target": "Aβ1-42 binding to recombinant human ApoE4 (Homo sapiens, UniProt P05067)", "sequence (P05067 672-713 limits assumed)": "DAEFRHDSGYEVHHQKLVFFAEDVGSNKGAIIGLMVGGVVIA", "assay": "ELISA of Aβ1-42 binding to recombinant human ApoE4", "type": "biochemical", "settings": "saturating concentrations of ApoE4 and Aβ1-42", "text": "FIG. 9 provides a graph corresponding to the experiments described in Example 6.2. […] Percent inhibition of signal without an IgG monoclonal antibody is shown. […] The interaction site of ApoE4 with Aβ1-42 requires amino acids 18 to 28 (Strittmatter et al., 1993)."}, "[2]": {"test_system": "primary cortical cultures", "assay": "Intracellular Aβ1-42 accumulation ELISA on trypsin-cleared cells", "type": "cell-based, rat", "experimental": "FIG. 3 provides graphs and immunocytochemical images corresponding to the experiments described in Example 6.4. Aβ1-42 oligomer binding to neurites was reduced by the anti-Aβ IgG4 monoclonal antibody. […] Green indicates staining with TuJ1, red indicates labeling with anti-Aβ (clone 6E10), and blue indicates staining with DAPI. […] Quantitative measures of fluorescence are shown for 30 min treatment and 18 h treatment (B). Mean results (±SEM) of two experiments are shown. […] Cortical cultures from P1 rats were treated as described for (A), except that Aβ1-42 tagged with HyLite Fluor-488 was used (C). Aβ1-42-labeled samples are shown in the upper panel and DAPI-stained samples are shown in the lower panel. […] Aβ1-42 fluorescence was quantified, with the mean (±SD) of the two independent experiments shown (D). […]\nThe intracellular accumulation of Aβ1-42 was determined in trypsin-cleared cells using an ELISA assay.\nTo measure intracellular Aβ1-42 accumulation by ELISA, primary cortical cultures were treated in 6-well cell-culture plates (Costar) after which they were washed and trypsin-cleared (Bateman et al., 2007) before lysis in cell-lysis buffer consisting of 50 mM Tris-HCl (pH 8.0), 150 mM NaCl, 5 mM EDTA, 1 mM sodium orthovanadate, 1% Triton X-100, and containing protease- and phosphatase-inhibitor cocktails. Protein concentration was determined by the BCA assay (Pierce). […]"}, "[3]": {"test_system": "amyloid plaques in human AD brain sections", "assay": "Immunohistochemistry of amyloid plaques in human AD brain sections", "type": "binding", "text": "Paraffin mounted temporal lobe brain sections (20 μm) from an AD patient and from an age-matched non-AD control (Tissue Solutions, Clydebank, UK) were used for immunohistochemistry staining. […] A goat-anti-human biotinylated IgG was used as a secondary antibody. Staining was done with diaminobenzidin (Dako, Glostrup, Denmark) and mounting using Eukitt mounting medium. Images were acquired on a LSM 700 inverted microscope from Zeiss."}, "Aβ1-42": {"target": "Aβ1-42 (Homo sapiens, UniProt P05067)", "sequence (P05067 672-713)": "as the sequence (P05067 672-713 limits assumed) above", "assay": "Aβ ELISA, binding to Aβ peptides and Aβ1-42 assembly states", "design": "purchased Bachem", "settings": "ELISA; monomeric, oligomeric, fibers, oligomer assemblies", "text": "FIG. 1 provides graphs and immunohistochemical images corresponding to the experiments described in Example 6.1 and 6.2. […] As a control, an anti-Aβ IgG monoclonal antibody with a N-terminal epitope was used. […] The mean (±SEM) of two assays is shown.\nMurine anti-Aβ monoclonal antibodies were generated by immunizing mice with an Aβ peptide antigen using a liposomal vaccine formulation as previously described (Muhs et al., 2007). Several criteria were used to select candidate antibodies, including the ability to bind multiple Aβ species and to inhibit Aβ1-42 assembly into small cytotoxic peptide aggregates. A monoclonal murine mAb with an IgG2b backbone (mMABT) was selected for in vivo functionality studies using both single-transgenic murine mutant human APP and double-transgenic murine mutant human APP/PS1 models of Alzheimer's Disease. […] These ranged from monomeric and oligomeric Aβ1-42 fractions isolated by size-exclusion chromatography (SEC), mature Aβ1-42 fibers, to a more complex mixture of highly neurotoxic Aβ1-42 oligomer assemblies, ranging in size from dimers and trimers to higher molecular-weight multimers (see FIG. 8)."}}, "data": [{"substance": "MABT: humanized anti-Aβ monoclonal antibody of IgG4 isotype, affinity matured and humanized form of mouse mMABT", "values": [{"measurement": "inhibition of the Aβ1-42 and ApoE4 interaction", "setting": "[1]", "value": "over 80%"}, {"measurement": "reduction of Aβ1-42 oligomer internalization (intracellular accumulation)", "setting": "[2]", "value": "more than 60%"}, {"measurement": "binding to amyloid plaques", "setting": "[3]", "value": "immunodecorated"}, {"measurement": "binding to different Aβ1-42 peptide preparations", "setting": "Aβ1-42", "value": "highly comparable among the different Aβ1-42 assembly states"}]}]}
